Reference: paper PMC8535069

B1: His6-RGS19 (natural protein)
chain: MPTPHEAEKQITGPEEADRPPSMSSHDTASPAAPSRNPCCLCWCCCCSCSWNQERRRAWQASRESKLQPLPSCEVCATPSPEEVQSWAQSFDKLMHSPAGRSVFRAFLRTEYSEENMLFWLACEELKAEANQHVVDEKARLIYEDYVSILSPKEVSLDSRVREGINKKMQEPSAHTFDDAQLQIYTLMHRDSYPRFLSSPTYRALLLQGPSQSSSEA

Tests used:
[1] = target: Gαo with the Gln52 mutation; test: co-IP; N2a cells co-transfected 24 h with Gαo-GFP constructs and His6-RGS19 (1:1) or mRFP-Gβ1/mRFP-Gγ3 (1:1:1); lysate in GST-lysis buffer (20 mM Tris-HCl pH 8.0, 1% Triton X-100, 10% glycerol in PBS); Gαo-GFP precipitated with GST-tagged GFP nanobody and glutathione Sepharose 4B overnight at 4 °C; Western blot against GFP, mRFP, His6; blots quantified, normalised to the precipitated Gαo, 5 experiments
[2] = target: Gαo[Gln52Pro] and Gαo[Gln52Arg]; test: as above

Row | Molecule | fold reduction of co-precipitation against wild-type Gαo [1] | fold reduction of co-precipitation against wild-type Gαo [2]
1 | Gβ1γ3 heterodimer (mRFP-Gβ1 and mRFP-Gγ3) (from UniProt P62873 1-340; P63215 1-75) (complex) | 2 to 4 fold | 
2 | B1 |  | 2 to 3 fold
